Data taken from patent US20030204066A1.

Target: human lymphotoxin (TNFβ) (human) (UniProt P01374)
Assay: cell-based or functional assay

Sequence of human lymphotoxin (TNFβ) (human) (P01374 35-205 limits assumed): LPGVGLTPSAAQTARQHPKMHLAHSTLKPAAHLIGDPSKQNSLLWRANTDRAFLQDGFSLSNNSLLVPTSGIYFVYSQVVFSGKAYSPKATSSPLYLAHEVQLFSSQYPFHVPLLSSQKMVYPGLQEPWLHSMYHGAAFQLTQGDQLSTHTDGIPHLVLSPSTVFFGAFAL

## p55-sf2 (p55 TNF receptor / IgG1 heavy chain single fusion with truncated light chain JCK) (from UniProt P19438) (Fc fusion)
  amount needed for the same inhibition of TNFβ cytotoxicity, against p75P-sf2 (fold (against p75P-sf2)): 3
